Key:
[1] = target: FLAG-tag-CDHR3 Y529 R166A (human) (UniProt Q6ZTQ4); experiment: co-IP; clarified lysate of transfected or stably transduced HeLa cells (2 mM CaCl2) incubated with sucrose purified C15 virus (10^7 PFUe) and α-CDHR3 antibody (cytoplasmic domain) overnight at 4°C, protein-G sepharose; Western with α-CDHR3 and α-C15
[2] = target: FLAG-tag-CDHR3 Y529 K43A (human) (UniProt Q6ZTQ4); experiment: as above
[3] = target: FLAG-tag-CDHR3 Y529 W76A (human) (UniProt Q6ZTQ4); experiment: as above
[4] = target: FLAG-tag-CDHR3 Y529 N186A (human) (UniProt Q6ZTQ4); experiment: as above
[5] = target: FLAG-tag-CDHR3 Y529 N186Q (human) (UniProt Q6ZTQ4); experiment: as above
[6] = target: rEC1-2 (CDHR3 residues 20–237) (human) (UniProt Q6ZTQ4); experiment: co-IP; refolded bacterial CDHR3 fragment (100 pmol) incubated with C15 virus (10^7 PFUe, 1 h, 25°C) and α-His mAb in 20 mM Tris, 137 mM NaCl, 2 mM CaCl2, 1% Triton x-100, protein-G sepharose; Western with α-His and α-C15; complexes also treated with 500 mM NaCl (Fig 5d)
[7] = target: rEC1-3 K43A (20–345, C345A, K43A) (human) (UniProt Q6ZTQ4); experiment: as above
[8] = target: rEC1 (CDHR3 residues 20–130) (human) (UniProt Q6ZTQ4); experiment: as above
[9] = target: rEC1+3(Δ2) (CDHR3 residues 20–345, Δ129–231) (human) (UniProt Q6ZTQ4); experiment: as above
[10] = target: rEC1-3 N186A (20–345, C345A, N186A) (human) (UniProt Q6ZTQ4); experiment: as above
[11] = target: rEC1-3 (CDHR3 residues 20–345, C345A) (human) (UniProt Q6ZTQ4); experiment: as above
[12] = target: pHL-FLAG-CDHR3-His EC1-3 (1–345) (human) (UniProt Q6ZTQ4); experiment: co-IP; HeLa-expressed CDHR3 fragments recovered from lysate with α-His mAb, denatured and refolded as the bacterial proteins, reacted with C15 virus; IP and detection with α-His mAb
[13] = target: the molecule itself; experiment: SEC; HiPrep 16/60 Sephacryl S200, refolded protein 0.5–1.5 mg, 1 mL/min, 20 mM Tris (pH 8.0), 137 mM NaCl, 2 mM CaCl2

rhinovirus C15 virion (complex) showed a binding % relative to WT CDHR3 (C15 signal normalized to CDHR3 signal) [1] of 16%, a binding % relative to WT CDHR3 (C15 signal normalized to CDHR3 signal) [2] of 46% and a % more virus pull-down than WT (% more than WT) [3] of 50 to 80. It also gave a binding % relative to WT CDHR3 (C15 signal normalized to CDHR3 signal) [4] of 11%, a binding % relative to WT CDHR3 (C15 signal normalized to CDHR3 signal) [5] of 19% and a binding % relative to the positive control (100) of the panel [6] of 87%. It also gave a binding % relative to WT rEC1-3 [7] of 22%, a binding % relative to the positive control (100) of the panel [8] of 100% and a binding % relative to the positive control (100) of the panel [9] of 68%. For the same molecule, the binding % relative to WT rEC1-3 [10] was 85 % of WT, the binding % relative to the positive control (100) of the panel [11] was 61% and the binding % after refolding relative to the same protein not refolded [12] was 213%.

B1: rEC1-3 (CDHR3 residues 20–345, C345A) (domain or fragment)
chain: LHLILLPATGNVAENSPPGTSVHKFSVKLSASLSPVIPGFPQIVNSNPLTEAFRVNWLSGTYFEVVTTGMEQLDFETGPNIFDLQIYVKDEVGVTDLQVLTVQVTDVNEPPQFQGNLAEGLHLYIVERANPGFIYQVEAFDPEDTSRNIPLSYFLISPPKSFRMSANGTLFSTTELDFEAGHRSFHLIVEVRDSGGLKASTELQVNIVNLNDEVPRFTSPTRVYTVLEELSPGTIVANITAEDPDDEGFPSHLLYSITTVSKYFMINQLTGTIQVAQRIDRDAGELRQNPTISLEVLVKDRPYGGQENRIQITFIVEDVNDNPATA
notes: numbering from GenBank AIC58018; also called soluble CDHR3 rEC1-3; not shown: His6, C-terminal, kept
B1: binds [13].

B2: rEC1-2 (CDHR3 residues 20–237) (domain or fragment)
chain: LHLILLPATGNVAENSPPGTSVHKFSVKLSASLSPVIPGFPQIVNSNPLTEAFRVNWLSGTYFEVVTTGMEQLDFETGPNIFDLQIYVKDEVGVTDLQVLTVQVTDVNEPPQFQGNLAEGLHLYIVERANPGFIYQVEAFDPEDTSRNIPLSYFLISPPKSFRMSANGTLFSTTELDFEAGHRSFHLIVEVRDSGGLKASTELQVNIVNLNDEVPRFT
notes: CDHR3, human, residues 20-237 (EC1 and EC2); numbering from GenBank AIC58018; also called rE1-2; rEC1-2 WT; not shown: His6, C-terminal, kept
B2: binds [13].

B3: rEC1-2 W76A (CDHR3 residues 20–237, W76A) (domain or fragment, human, UniProt Q6ZTQ4 20-237, looked up)
chain: LHLILLPATGNVAENSPPGTSVHKFSVKLSASLSPVIPGFPQIVNSNPLTEAFRVNALSGTYFEVVTTGMEQLDFETGPNIFDLQIYVKDEVGVTDLQVLTVQVTDVNEPPQFQGNLAEGLHLYIVERANPGFIYQVEAFDPEDTSRNIPLSYFLISPPKSFRMSANGTLFSTTELDFEAGHRSFHLIVEVRDSGGLKASTELQVNIVNLNDEVPRFT
notes: CDHR3, human, residues 20-237; numbering from GenBank AIC58018; not shown: His6, C-terminal, kept
B3: binds [13].

From paper PMC6301718, “CDHR3 extracellular domains EC1-3 mediate rhinovirus C interaction with cells and as recombinant derivatives, are inhibitory to virus infection” (PLoS Pathogens, 2018)
